From patent US20260242478A1 (published 2026)
Where no end group is shown, it is not given here.

Legend:
[1] = molecular target: T1, Anti-PSMA Fab (SEQ ID NOs: 19, 20); test: phage binding ELISA; biotinylated anti-PSMA Fab on neutravidin plate, bound phage detected with anti-M13-HRP
T1 construct: Biotinylated PSMA Fab captured on neutravidin coated plates in the phage ELISA; also called 006 PSMA Fab
Protocol: (§1) Clonal phage were harvested as crude supernatants and screened via standard ELISAs. […] Prior to the addition of clonal phage. wells were incubated with blocking buffer and PSMA antigen or blocking buffer alone. Without washing or aspirating, clonal phage supernatants were then added to the wells and incubated for a short time. Wells were then washed followed by detection of bound phage using a horse radish conjugated anti-M13 antibody.

[2] = molecular target: T1, Anti-PSMA Fab (SEQ ID NOs: 19, 20); test: phage binding ELISA on captured anti-PSMA Fab; competitor: PSMA antigen pre-incubated in the wells
Protocol: as §1

[3] = molecular target: T2, Anti-PSMA Fab (SEQ ID NOs: 19, 20); test: phage ELISA; PSMA Fab on plate pre-incubated with PSMA antigen as competitor, anti-M13 HRP detection;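 also: crude clonal phage supernatants added to Fab-coated wells still holding PSMA antigen in blocking buffer, with bound phage as read-out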
T2 construct: In the phage ELISA the Fab was biotinylated and captured on neutravidin coated plates; also called 006 PSMA Fab
Protocol: as §1

[4] = molecular target: T2, Anti-PSMA Fab (SEQ ID NOs: 19, 20); test: phage ELISA; biotinylated PSMA Fab on neutravidin plate, clonal phage supernatant, anti-M13 HRP detection;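 also: wells preincubated with PSMA antigen in blocking buffer or with blocking buffer only before clonal phage were added for a short incubation, then bound phage detected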
Protocol: as §1

[5] = molecular target: T3, Anti-PSMA Fab (SEQ ID NOs: 19, 20); test: phage binding ELISA; biotinylated PSMA Fab on neutravidin plate, clonal phage supernatant, anti-M13 HRP detection;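 also: wells were preincubated with blocking buffer either containing PSMA antigen or without it before crude phage supernatant was added, briefly incubated, then washed prior to detection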
T3 construct: In the panning ELISA the Fab was biotinylated and captured on neutravidin coated plates; also called 006 PSMA Fab
Protocol: as §1

[6] = molecular target: T3, Anti-PSMA Fab (SEQ ID NOs: 19, 20); test: phage binding ELISA; biotinylated PSMA Fab on neutravidin plate pre-incubated with PSMA antigen (competitor), anti-M13 HRP detection;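 also: competition ELISA where clonal phage supernatants were added to wells preincubated with PSMA antigen or with blocking buffer only as control, bound phage read via HRP-coupled anti-M13 antibody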
Protocol: as §1

Binder | Anti-PSMA Fab (SEQ ID NOs: 19, 20) signal [1] | Anti-PSMA Fab signal in the presence of PSMA [2] | Anti-PSMA Fab (SEQ ID NOs: 19, 20) signal [5] | Anti-PSMA Fab signal in the presence of PSMA [6] | other results
WENRCTPAWMCKGF [Phage-1867] | 2.12 | 0.0837 |  |  | 
WDHWCTPAWMCEFV (cysteine pairing not given here; also: displayed on phage as pIII fusion, pIII and linker sequences not given here, Clone of the Peptide-180 library) [Phage-1852] |  |  |  |  | Phage binding ELISA, Anti-PSMA Fab signal in the presence of PSMA [3]: 0.0692; Phage binding ELISA, Anti-PSMA Fab signal [4]: 2.17
GDNWCKPEWMCIGF (cysteine pairing not given here; also: displayed on phage as pIII fusion, pIII and linker sequences not given here, Clone of the Peptide-180 library) [Phage-1860] |  |  |  |  | Phage binding ELISA, Anti-PSMA Fab signal in the presence of PSMA [3]: 0.0978; Phage binding ELISA, Anti-PSMA Fab signal [4]: 2.16
AVKLCIPEWMCVGQ [Phage-1861] | 2.15 | 0.0676 |  |  | 
IERWCIPDWMCHVW (tested as crude clonal phage supernatant) [Phage-1877] |  |  | 2.08 | 0.126 | 
VMKWCIPEWMCQHT [Phage-1872] | 2.09 | 0.199 |  |  | 
VEHWCIPAWMCEWM [Phage-1873] | 2.09 | 0.12 |  |  | 
FAKWCIPEWMCSVS (tested as crude clonal phage supernatant) [Phage-1885] |  |  | 2.06 | 0.119 | 
VDKWCTPIWMCEGF (cysteine pairing not given here; also: displayed on phage as pIII fusion, pIII and linker sequences not given here, Clone of the Peptide-180 library) [Phage-1858] |  |  |  |  | Phage binding ELISA, Anti-PSMA Fab signal in the presence of PSMA [3]: 0.0951; Phage binding ELISA, Anti-PSMA Fab signal [4]: 2.16
MVMRCQPEWMCTGI (tested as crude clonal phage supernatant) [Phage-1884] |  |  | 2.06 | 0.122 | 
DFRWCIPEWMCTGY [Phage-1863] | 2.14 | 0.11 |  |  | 
IMKWCIPEWMCYFF [Phage-1864] | 2.14 | 0.1 |  |  | 
SIKMCIPQWMCVMQ [Phage-1869] | 2.11 | 0.179 |  |  | 
MGNWCIPTWMCTGF (cysteine pairing not given here; also: displayed on phage as pIII fusion, pIII and linker sequences not given here, Clone of the Peptide-180 library) [Phage-1856] |  |  |  |  | Phage binding ELISA, Anti-PSMA Fab signal in the presence of PSMA [3]: 0.162; Phage binding ELISA, Anti-PSMA Fab signal [4]: 2.16
FVPWCIPAWMCAEN (cysteine pairing not given here; also: displayed on phage as pIII fusion, pIII sequence and linker not given here) [Phage-1875] | 2.08 | 0.111 |  |  | 
WEHWCRPAWMCESL [Phage-1866] | 2.12 | 0.134 |  |  | 
VVKLCIPEWMCAEW (cysteine pairing not given here; also: displayed on phage as pIII fusion, pIII sequence and linker not given here, tested as crude clonal phage supernatant) [Phage-1876] |  |  | 2.08 | 0.115 | 
LEKWCTPAWMCEML (tested as crude clonal phage supernatant) [Phage-1881] |  |  | 2.06 | 0.0814 | 

Binder | Anti-PSMA Fab (SEQ ID NOs: 19, 20) signal [1] | Anti-PSMA Fab signal in the presence of PSMA [2] | Anti-PSMA Fab (SEQ ID NOs: 19, 20) signal [5] | Anti-PSMA Fab signal in the presence of PSMA [6] | other results
WEKWCIPAWMCVAD (tested as crude clonal phage supernatant) [Phage-1886] |  |  | 2.05 | 0.134 | 
SEMLCKPSWMCLGF (cysteine pairing not given here; also: displayed on phage as pIII fusion, pIII and linker sequences not given here, Clone of the Peptide-180 library) [Phage-1851] |  |  |  |  | Phage binding ELISA, Anti-PSMA Fab signal in the presence of PSMA [3]: 0.0726; Phage binding ELISA, Anti-PSMA Fab signal [4]: 2.17
EITRCIPAWMCDFW [Phage-1865] | 2.13 | 0.081 |  |  | 
VEILCKPKWMCEFW (tested as crude clonal phage supernatant) [Phage-1878] |  |  | 2.07 | 0.109 | 
MEKLCKPAWMCSML [Phage-1868] | 2.11 | 0.0627 |  |  | 
LDKWCIPEWMCFDY [Phage-1862] | 2.14 | 0.0678 |  |  | 
VMKWCIPSWMCSQD (cysteine pairing not given here; also: displayed on phage as pIII fusion, pIII and linker sequences not given here, Clone of the Peptide-180 library) [Phage-1857] |  |  |  |  | Phage binding ELISA, Anti-PSMA Fab signal in the presence of PSMA [3]: 0.165; Phage binding ELISA, Anti-PSMA Fab signal [4]: 2.16
VLMLCKPAWMCMGF (tested as crude clonal phage supernatant) [Phage-1880] |  |  | 2.07 | 0.375 | 
MEKWCTPSWMCVGF (cysteine pairing not given here; also: displayed on phage as pIII fusion, pIII and linker sequences not given here, Clone of the Peptide-180 library) [Phage-1855] |  |  |  |  | Phage binding ELISA, Anti-PSMA Fab signal in the presence of PSMA [3]: 0.148; Phage binding ELISA, Anti-PSMA Fab signal [4]: 2.17
WEKWCTPQWMCELI (cysteine pairing not given here; also: displayed on phage as pIII fusion, pIII and linker sequences not given here, Clone of the Peptide-180 library) [Phage-1854] |  |  |  |  | Phage binding ELISA, Anti-PSMA Fab signal in the presence of PSMA [3]: 0.182; Phage binding ELISA, Anti-PSMA Fab signal [4]: 2.17
VEKWCVPTWMCDWV (cysteine pairing not given here; also: displayed on phage as pIII fusion, pIII and linker sequences not given here, Clone of the Peptide-180 library) [Phage-1859] |  |  |  |  | Phage binding ELISA, Anti-PSMA Fab signal in the presence of PSMA [3]: 0.0833; Phage binding ELISA, Anti-PSMA Fab signal [4]: 2.16
HVKWCIPAWMCEAS [Phage-1871] | 2.1 | 0.0972 |  |  | 
SPKWCTPEWMCSHL [Phage-1874] | 2.09 | 0.127 |  |  | 
VTPWCTPSWMCFGF (tested as crude clonal phage supernatant) [Phage-1882] |  |  | 2.06 | 0.072 | 
VNKLCTPEWMCVGM (tested as crude clonal phage supernatant) [Phage-1883] |  |  | 2.06 | 0.0609 | 
SLHWCIPAWMCDFV (tested as crude clonal phage supernatant) [Phage-1879] |  |  | 2.07 | 0.185 | 
MEKWCIPEWMCLHT (cysteine pairing not given here; also: displayed on phage as pIII fusion, pIII and linker sequences not given here, Clone of the Peptide-180 library) [Phage-1853] |  |  |  |  | Phage binding ELISA, Anti-PSMA Fab signal in the presence of PSMA [3]: 0.0816; Phage binding ELISA, Anti-PSMA Fab signal [4]: 2.17
EFIWCRPAWMCMDV [Phage-1870] | 2.11 | 0.0681 |  |  | 
